Assay results published in paper PMC6911004, “Fragment-based screening identifies molecules targeting the substrate-binding ankyrin repeat domains of tankyrase” (Scientific Reports, 2019).

Target: T1, TNKS2 ARC5 (Homo sapiens, UniProt Q9H2K2)
T1 construct: followed by TNKS2 ARC5 (1 μL, 100 μM stock); His6-GST; made in house; host or cells: E. coli
T1 sequence (Q9H2K2 whole entry, looked up): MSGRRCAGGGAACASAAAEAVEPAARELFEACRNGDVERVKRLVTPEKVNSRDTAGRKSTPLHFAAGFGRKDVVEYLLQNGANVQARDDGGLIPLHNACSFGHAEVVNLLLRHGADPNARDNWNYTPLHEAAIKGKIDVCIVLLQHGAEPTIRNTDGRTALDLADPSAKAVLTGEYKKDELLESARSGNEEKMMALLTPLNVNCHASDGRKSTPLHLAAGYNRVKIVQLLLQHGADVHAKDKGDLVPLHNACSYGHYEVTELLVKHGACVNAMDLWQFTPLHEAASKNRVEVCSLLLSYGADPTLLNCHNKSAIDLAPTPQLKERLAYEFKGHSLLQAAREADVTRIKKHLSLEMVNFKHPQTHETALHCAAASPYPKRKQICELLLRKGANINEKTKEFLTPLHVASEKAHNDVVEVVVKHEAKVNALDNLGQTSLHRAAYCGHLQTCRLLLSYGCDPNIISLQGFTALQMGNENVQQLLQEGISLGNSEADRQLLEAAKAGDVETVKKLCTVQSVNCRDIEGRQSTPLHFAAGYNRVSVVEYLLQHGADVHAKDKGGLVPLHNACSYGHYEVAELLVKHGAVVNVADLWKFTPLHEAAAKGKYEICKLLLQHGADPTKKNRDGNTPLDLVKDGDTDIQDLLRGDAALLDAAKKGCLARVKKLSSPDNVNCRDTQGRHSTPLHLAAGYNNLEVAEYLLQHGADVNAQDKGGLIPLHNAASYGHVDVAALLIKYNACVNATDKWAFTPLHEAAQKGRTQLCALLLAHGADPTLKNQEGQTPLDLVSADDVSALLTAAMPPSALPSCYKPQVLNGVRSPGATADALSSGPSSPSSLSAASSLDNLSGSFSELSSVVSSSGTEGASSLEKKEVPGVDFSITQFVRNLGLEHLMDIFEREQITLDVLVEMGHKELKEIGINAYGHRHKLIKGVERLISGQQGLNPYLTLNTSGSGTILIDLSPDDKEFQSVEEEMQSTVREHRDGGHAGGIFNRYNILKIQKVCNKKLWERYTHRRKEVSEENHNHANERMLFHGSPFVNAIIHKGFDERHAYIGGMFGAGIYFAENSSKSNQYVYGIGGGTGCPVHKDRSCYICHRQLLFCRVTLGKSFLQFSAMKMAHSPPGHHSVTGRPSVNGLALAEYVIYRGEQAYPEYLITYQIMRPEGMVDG
Assay: Differential scanning fluorimetry (DSF, thermal shift)
Type: binding
Settings: ARC 20 μM + 3BP2 TBM peptide 200 μM, inflection point method
Protocol: Therefore, we chose TNKS2 ARC5 for screening by DSF, anticipating the largest signal window for measuring changes in Tm upon fragment binding.
We screened 1869 compounds in duplicate at a concentration of 500 μM, which we considered a reasonable compromise between having a sufficiently high concentration to identify weak binders while minimising the likelihood of false positives through fragment precipitation/aggregation and non-specific binding. The final DMSO concentration was 5%. We calculated melting temperatures using both the inflection point and the maximum peak of first derivative data methods. Both methods generally agreed, unless the melt curve was biphasic or misshapen, with slightly lower variability for the […] Tm determination method (see Materials and Methods for experimental and analysis details).
We determined the melting temperature for the unbound ARC (Tm, 0) from the mean of 12 reference melting curves per plate, with 5% DMSO only. We calculated the change in melting temperature (ΔTm) by subtracting the mean Tm, 0 from Tm, compound. We tested compounds in duplicate, defining fragments as hits if they conferred a ΔTm outside two standard deviations (2σ) from the mean, in one or both replicates. To check for consistency between plates, we ran triplicate peptide controls; however, we excluded peptide ΔTm values from the calculation of the mean ΔTm to avoid skewing the results. We observed mean ΔTm values (IP/1st derivative methods) of −0.127/−0.331 °C and σ as 0.997/1.19 °C. A hit cut-off of 2σ gave absolute shifts of +1.87/+2.05 °C for compounds that stabilised and −2.13/−2.71 °C for compounds that destabilised the ARC (Fig. 2B).
For the screen, a C1000 thermal cycler (Bio-Rad) was used to record melt curves. SYPRO Orange was purchased as a 5000 × stock in DMSO from Sigma Aldrich. The ICR fragment library was available as 100 mM stocks in DMSO, and dispensed (25 nL) using an ECHO acoustic liquid handling system into white 384-well PCR plates (Framestar, 4titude). Wells were backfilled with DMSO (225 nL). Buffer (2.75 μL, 25 mM HEPES-NaOH pH 7.5, 100 mM NaCl, 2 mM TCEP) was added, followed by TNKS2 ARC5 (1 μL, 100 μM stock) and then SYPRO orange dye (1 μL, 25×). The plate was centrifuged after the addition of each reagent (1 min, 1000 × g). Final assay concentrations were as follows: TNKS2 ARC5 (20 μM); fragment (500 μM); SYPRO Orange dye (5×); DMSO (5% v/v) in a total volume of 5 μL. Peptide control wells (3BP2 TBM 16-mer, 200 μM, sequence LPHLQRSPPDGQSFRSW with C-terminal tryptophan added for photometric concentration measurements, the N-terminus acetylated and the C-terminus amide-capped) were plated in triplicate, and there were 12 blank wells per plate, with DMSO only (250 nL, 5% v/v). Melt curves were recorded from 20–95 °C, with the temperature ramped by 0.5 °C every 15 s. Data were analysed using Vortex (Dotmatics) software and melting temperatures calculated from both the inflection point and the maximum peak of 1st-derivative data. Data points were excluded if the melt curve was poor, i.e., if there was no fluorescence signal above baseline, high fluorescence intensity throughout, or if the melt curve was shallow (<1000 rfu difference between baseline and peak maximum). The unbound melting temperature was determined from the mean of 12 reference melting curves, with 5% DMSO only. The change in melting temperature (ΔTm) was calculated by subtracting the mean Tm, 0 from Tm, compound. Compounds were tested in duplicate, and fragments were defined as hits if they gave a ΔTm outwith 2 σ from the mean in one or both replicates.
For the experiment shown in Fig. 2A, ARC and 3BP2 TBM peptide concentrations were 20 and 200 μM, respectively, in 50 mM HEPES-NaOH pH 7.5, 100 mM NaCl, 2 mM TCEP and a total volume of 25 μL. SYPRO Orange was added at 5×. Data were recorded from 4–95 °C, with the temperature ramped by 0.5 °C every 15 s, using a CFX384 thermal cycler (Bio-Rad). […]

ΔTm: 4.14 °C
Sequence: LPHLQRSPPDGQSFRSW [3BP2 16-mer peptide, 16-mer TBM peptide derived from 3BP2, W added for A280, N-terminus acetylated, C-terminus amide-capped; positive control, reference compound]
